Results on 15 sequences are retold here after a protein production outcome set (Wang et al. 2014).

This data set is described as follows: label from the status in PepcDB records.
For “METLNDIKKILINVGLYQGFDLTDPKVSEEVNHETANMKWIKDYTSDGNWDNEFKEDLKNFLDYMEVCQLALNDKNFKIASNSLFMAMIYAGNLSLIFDSIKTDISTLLSAEYKKNSFSWPSLDE”, the protein production entry was “not failed”.
With “AADGEGRGELSPKIKAGDLESKLIVPKNNGLKITGTFLDEISHDIPHQNWGEKEWDLDFQHMKRIGIDTVIMIRSGYRKFMTYPSPYLLKKGCYMPSVDLVDMYLRLAEKYNMKFYFGLYDSGRYWDTGDLSWEIEDNKYVIDEVWKMYGEKYKSFGGWYISGEISRATKGAIDAFRAMGKQCKDISNGLPTFISPWIDGKKAIMGTGKLTREDAVSVQQHEKEWNEIFDGIHEVVDACAFQDGHIDYDELDAFFTVNKKLADKYGMQCWTNAESFDRDMPIRFLPIKFDKLRMKLEAAKRAGYDKAITFEFSHFMSPQSAYLQAGHLYDRYREYFEIK”, the protein production entry is recorded as “not failed”.
The entry for “MAIQGSRTEGLGGYTFDDLAVVMGTYNEEEAIGTVLDDIATVTDGRAEVICVDGSSDRTPEIARDHGATVIEQEPQGYGVAVREAVLTPDRPVVVTTDCDDTYPMERLPDFLAEINDGADVVSGDRLYYGAEQMPAMNKLGNELFALLASVLMGKRVHDTTTGMRAYRREVLQKIVWTENTGLSAELLMRPLMRGYDVRERPIEYDERKGETKLDPFSGGAAIAKSIVRVALEERFRLEHHHHHH” is “not failed”; for “MSEHFLQQKYNSISENPIYLFWFLQFCFWSFVSLISLVSLTLWYVQIDVAHLNHTFLQSFVGVVFSLPLYWAFMRCWNTSIFIRVFVSITSVLLISFIWTVIRVELYIRLTGTDEIWTQFGGWYFSSIFIYFCWTGFFHGIRYYQLLQFEHEIMLKKEAEAKTEQLKRLSAQTVARDAKIKMLRYQLNPHFLCNTLNAINSLIECELPEKAQLMTVQLSKFLRYSLDNDPDTKIALEFELKALELYLEIEKTRFGERLQLDFQISEAAKAAFIPSLLLQPLIENSMKHVIAQNEEGGVISLSADVIDNMLVLELSDTGSAKRVDINKIKSKTGRGVGLRNIDERLKALYTDNYVYNLNVRPSGGLKTTIKLPLDSQGEPDIVNQAYNSMKVC” it is “failed”.
The entry for “MSVPTTMFRLTGRDYPPAKLSHASLIIIDAQKEYLSGPLKLSGMDEAVANIARLLDAARKSGRPIIHVRHLGTVGGRFDPQGPAGQFIPGLEPLEGEIVIEKRMPNAFKNTKLHETLQELGHLDLIVCGFMSHSSVSTTVRRAKDYGYRCTLVEDASATRDLAFKDGVIPAAQIHQCEMAVMADNFACVAPTASLI” is “not failed”.
Take “MTSHHAIEVTKTVLEVADVAWTAVETYHHHHHHQDENHESTNPISDPRDRELEALRQENRRLRTLLESNLKLFETLAESAAFSHDCPSDLYARLVTMVTSRDFLARLENLRQALSNGTQNQFPFKEPTEDDVKTVEVLIEMDHQEPSWWVLVTDDMVPSNVEEQSAIDNEHYIVVNEEHVIDAVAHFLAKCIMSNPKAKNLKPEELQKLLVQEVTALSKVGKVVDIWHAGKMFYTLSTWGLAFGGLYQARGVLKIAAKGVHATSKVVLRAL”: the protein production entry is listed as “failed”.
The entry for “MTIKEFIKKSRLKTWDVIIIAILVLGSFLPLVVFAMQNRGQEAATYQAVLKVDNKVIKVFDLKKDGPHYTYKYEAKDGDYNLIEVDGDRIRVKEANCADLVDVRRGWISKPGETPIACLPHNLFITVEASDGSEDGSLIY” is “failed”; for “MFVTLQTVQESEKEILRNLYALYLHDLSTFTSNITIGANGFFEYEDLHMFWVNDGITPYFIKSDNEIVGFLLLLERPFLKKENDFGINDIFILNQYKGKGIGKQVIESLLKEKRGQYFVIELVKNVPAVSFWKKVYRELNIEFDEKIQLIDDEECLVQTFEI” it is “failed”; for “MAFSGSQAPYLSPAVPFSGTIQGGLQDGLQITVNGTVLSSSGTRFAVNFQTGFSGNDIAFHFNPRFEDGGYVVCNTRQNGSWGPEERKTHMPFQKGMPFDLCFLVQSSDFKVMVNGILFVQYFHRVPFHRVDTISVNGSVQLSYISFQNPRTVPVQPAFSTVPFSQPVCFPPRPRGRRQKPPGVWPANPAPITQTVIHTVQSAPGQMFSTPAIPPMMYPHPAYPMPFITTILGGLYPSKSILLSGTVLPSAQRFHINLCSGNHIAFHLNPRFDENAVVRNTQIDNSWGSEERSLPRKMPFVRGQSFSVWILCEAHCLKVAVDGQHLFEYYHRLRNLPTINRLEVGGDIQLTHVQT” it is “not failed”.
The entry for “MKILLIGASGTLGSAVKERLEKKAEVITAGRHSGDVTVDITNIDSIKKMYEQVGKVDAIVSATGSATFSPLTELTPEKNAVTISSKLGGQINLVLLGIDSLNDKGSFTLTTGIMMEDPIVQGASAAMANGAVTAFAKSAAIEMPRGIRINTVSPNVLEESWDKLEPFFEGFLPVPAAKVARAFEKSVFGAQTGESYQVY” is “not failed”; for “MTLFDGTPFEWAPGRIEVRARRECGASRKSLVVAAGVSYLARMIFSFDAFVTNALFDRSGRAMFALGDGTVRLQTDEGFVTVEAHGGPLGGAVLAAAVHPSGAGIVTGGDDGRVVWSRIEGGEVVATLIAEVKNKWIEHVAASAASGLIAFTVGKEVHVRDAADPAFARTFPHEKTVSGLAFEPKGRRLASATYGGAYLWYARIADQKPTVLKWAGSHIAVEFSPDGKFLISSMQENQLHGWRLSDGKDMRMGGYPSKIKSVAFFDKGNLLATAGASGAVIWPFAGANGPMGKEAAEIGFSRDSMVVRVAGIDPQPVCIAGQDSGKIWAAHMRNGRIETLKAEKGAPISALSVSADGKRLAWGDESGEAGVLEIPDLSGPRQFVGLEHHHHHH” it is “failed”.
The entry for “MDPAVFEEWMMIILVTVLIGFMGFIVWDLAKKSKAGKFGTLILFFVLGLGVLAFIIKSVVVGFLEGV” is “failed”; for “MFDFSIVTNWIHEMLLSVMPEGWAIFIECIAVGVCIVALYAILAIVLIYMERKVCGFFQCRLGPNRVGKWGSIQVICDVLKMLTKEIFTPKDADRFLYNLAPFMVIIASFLTFACIPFNKGAEILNFNVGVFFLLAASSIGVVGILLAGWGSNNKFSLIGAMRSGAQIISYELSVGMSIMTMVVLMGTMQFSEIVEGQADGWFIFKGHIPAVIAFIIYLIAGNAECNRGPFDLPEAESELTAGYHTEYSGMHFGFFYLAEYLNLFIVASVAATIFLGGWMPLHIIGLDGFNAVMDYIPGFIWFFAKAFFVVFLLMWIKWTFPRLRIDQILNLEWKYLVPISMVNLLLMACCVAFGFHF” it is “failed”; for “MASNSSSCPTPGGGHLNGYPVPPYAFFFPPMLGGLSPPGALTTLQHQLPVSGYSTPSPATIETQSSSSEEIVPSPPSPPPLPRIYKPCFVCQDKSSGYHYGVSACEGCKGFFRRSIQKNMVYTCHRDKNCIINKVTRNRCQYCRLQKCFEVGMSKESVRNDRNKKKKEVPKPECSESYTLTPEVGELIEKVRKAHQETFPALCQLGKYTTNNSSEQRVSLDIDLWDKFSELSTKCIIKTVEFAKQLPGFTTLTIADQITLLKAACLDILILRICTRYTPEQDTMTFSDGLTLNRTQMHNAGFGPLTDLVFAFANQLLPLEMDDAETGLLSAICLICGDRQDLEQPDRVDMLQEPLLEALKVYVRKRRPSRPHMFPKMLMKITDLRSISAKGAERVITLKMEIPGSMPPLIQEMLENSEGLDTLSGQPGGGGRDGGGLAPPPGSCSPSLSPSSNRSSPATHSP” it is “not failed”.
For “MALCLNPDCGQPNNDDANSSCATCGSPLLLRDRYRVVKAIGQGGFGATYLGQDLQLPGEPLCVIKQLLPQVQDPEIMLMARELFRREAKTLGRIGSHPQVPTLLDYFEAPEGFYLVQEYIRGKTLEQEVREQGVYSETATKQFLSELLPLLQYLHNQGVIHRDIKPANLLRRDIDRRLVLIDFGAVKDQVSQIQGGSGLTALTSFSVGTRGYAPPEQLAMRPVYSSDLYSLGVTCLFLMTGKGPQDLDYNPVTGELLWRNSVQVSDALATVLGKMLAASVRYRYQRAEQVMTALDLQPYHDSLIQGLSALPPGAPPIKPSSGRTGSGYPSPQERQAEAIRARRRDRSGNRPEQLADAQQIAAWTGGTSNTSGNNSAGRLSLNARDILATYQRGRRDFSQQPLNRIDLSESQLPSVNFQGAQLKESLFVAAQLERADFGQANLHRANLRRANLHQAYFGNADLSFANLQKADLSDAILSNANLRGTNLCGANLRGAKLTPVQLKMAKTNWWTILPDGRRGRLF”, the protein production entry was “failed”.
